# Values joined by “and” are separate entries in the source; they are usually repeats but may differ in a detail not shown here. Equal values may be shown once.
# T1: CD206 (human, UniProt P22897)
# T1 chain: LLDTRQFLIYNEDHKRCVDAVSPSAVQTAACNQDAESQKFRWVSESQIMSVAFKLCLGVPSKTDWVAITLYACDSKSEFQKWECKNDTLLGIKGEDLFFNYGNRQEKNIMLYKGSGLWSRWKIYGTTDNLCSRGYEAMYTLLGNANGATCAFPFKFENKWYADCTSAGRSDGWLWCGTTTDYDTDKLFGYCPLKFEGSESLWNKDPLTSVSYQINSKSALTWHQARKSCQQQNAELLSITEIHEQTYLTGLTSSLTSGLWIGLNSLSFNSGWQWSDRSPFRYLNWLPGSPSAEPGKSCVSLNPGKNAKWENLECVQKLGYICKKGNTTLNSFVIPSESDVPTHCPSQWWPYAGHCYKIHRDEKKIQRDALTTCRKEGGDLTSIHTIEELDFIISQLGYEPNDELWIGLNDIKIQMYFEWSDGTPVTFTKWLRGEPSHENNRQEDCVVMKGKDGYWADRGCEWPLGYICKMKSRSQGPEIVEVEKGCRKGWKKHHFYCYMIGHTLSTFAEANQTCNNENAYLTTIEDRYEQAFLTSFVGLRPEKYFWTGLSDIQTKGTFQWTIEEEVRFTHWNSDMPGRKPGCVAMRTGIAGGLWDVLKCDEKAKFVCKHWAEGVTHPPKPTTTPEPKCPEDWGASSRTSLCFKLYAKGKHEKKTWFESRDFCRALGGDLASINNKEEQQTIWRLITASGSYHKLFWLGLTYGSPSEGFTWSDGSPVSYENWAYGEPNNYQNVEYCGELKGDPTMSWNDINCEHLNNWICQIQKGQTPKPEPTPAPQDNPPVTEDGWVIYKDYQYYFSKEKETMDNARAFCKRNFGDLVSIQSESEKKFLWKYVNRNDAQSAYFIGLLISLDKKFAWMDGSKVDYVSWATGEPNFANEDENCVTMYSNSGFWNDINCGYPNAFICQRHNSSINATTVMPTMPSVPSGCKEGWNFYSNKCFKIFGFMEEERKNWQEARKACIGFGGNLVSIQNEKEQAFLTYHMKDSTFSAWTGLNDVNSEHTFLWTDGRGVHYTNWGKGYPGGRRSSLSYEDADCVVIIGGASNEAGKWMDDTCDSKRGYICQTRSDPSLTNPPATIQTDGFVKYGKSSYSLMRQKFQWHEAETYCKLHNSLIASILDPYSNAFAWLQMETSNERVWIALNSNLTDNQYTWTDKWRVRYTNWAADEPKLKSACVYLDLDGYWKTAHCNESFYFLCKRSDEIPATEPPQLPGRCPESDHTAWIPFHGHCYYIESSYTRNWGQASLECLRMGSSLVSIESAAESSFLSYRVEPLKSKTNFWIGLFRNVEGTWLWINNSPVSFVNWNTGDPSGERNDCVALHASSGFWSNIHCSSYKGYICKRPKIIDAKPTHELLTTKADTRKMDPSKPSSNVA
# Target: T1, CD206
# Test: SPR
row,Kd,Binder
1,27.8 nM and 47 nM,"BEAT 2b1 CD206 arm (antibody, V domains shown) VH: EVQLVQSGAEVKKPGESLRISCKGSGDSFTTYWIGWVRQMPGKGLEWMGIIYPGDSDTIYSPSFQGQVTISADKSISTAYLQWSSLKASDTAMYYCTRGDRGVDYWGQGTLVTVSS VL: DIQMTQSPSSLSASVGDRVTITCRASQGISRWLAWYQQKPEKAPKSLIYAASSLQSGVPSRFSGSGSGTDFTLTISGLQPEDFATYYCQQYNSYPRTFGQGTKVEIK"
2,10.3 nM and 10.4 nM,"BEAT 2a6 CD206 arm (antibody, V domains shown) VH: EVQLVQSGAEVKKPGESLRISCKGSGDSFTTYWIGWVRQMPGKGLEWMGIIYPGDSDTIYSPSFQGQVTISADKSISTAYLQWSSLKASDTAMYYCTRGDRGVDYWGQGTLVTVSS VL: DIQMTQSPSSLSASVGDRVTITCRASQGISRWLAWYQQKPEKAPKSLIYAASSLQSGVPSRFSGSGSGTDFTLTISGLQPEDFATYYCQQYNSYPRTFGQGTKVEIK"
3,15.9 nM and 14.3 nM,"BEAT 2a7 CD206 arm (antibody, V domains shown) VH: EVQLVQSGAEVKKPGESLRISCKGSGDSFTTYWIGWVRQMPGKGLEWMGIIYPGDSDTIYSPSFQGQVTISADKSISTAYLQWSSLKASDTAMYYCTRGDRGVDYWGQGTLVTVSS VL: DIQMTQSPSSLSASVGDRVTITCRASQGISRWLAWYQQKPEKAPKSLIYAASSLQSGVPSRFSGSGSGTDFTLTISGLQPEDFATYYCQQYNSYPRTFGQGTKVEIK"
4,11.2 nM and 10.3 nM and 10.5 nM and 11.1 nM,"anti-CD206 IgG1 (antibody, V domains shown) VH: EVQLVQSGAEVKKPGESLRISCKGSGDSFTTYWIGWVRQMPGKGLEWMGIIYPGDSDTIYSPSFQGQVTISADKSISTAYLQWSSLKASDTAMYYCTRGDRGVDYWGQGTLVTVSS VL: DIQMTQSPSSLSASVGDRVTITCRASQGISRWLAWYQQKPEKAPKSLIYAASSLQSGVPSRFSGSGSGTDFTLTISGLQPEDFATYYCQQYNSYPRTFGQGTKVEIK"
5,10.3 nM and 11.9 nM,"BEAT 2a4 CD206 arm (antibody, V domains shown) VH: EVQLVQSGAEVKKPGESLRISCKGSGDSFTTYWIGWVRQMPGKGLEWMGIIYPGDSDTIYSPSFQGQVTISADKSISTAYLQWSSLKASDTAMYYCTRGDRGVDYWGQGTLVTVSS VL: DIQMTQSPSSLSASVGDRVTITCRASQGISRWLAWYQQKPEKAPKSLIYAASSLQSGVPSRFSGSGSGTDFTLTISGLQPEDFATYYCQQYNSYPRTFGQGTKVEIK"
6,12.7 nM and 13.4 nM,"BEAT 2b2 CD206 arm (antibody, V domains shown) VH: EVQLVQSGAEVKKPGESLRISCKGSGDSFTTYWIGWVRQMPGKGLEWMGIIYPGDSDTIYSPSFQGQVTISADKSISTAYLQWSSLKASDTAMYYCTRGDRGVDYWGQGTLVTVSS VL: DIQMTQSPSSLSASVGDRVTITCRASQGISRWLAWYQQKPEKAPKSLIYAASSLQSGVPSRFSGSGSGTDFTLTISGLQPEDFATYYCQQYNSYPRTFGQGTKVEIK"
7,22.2 nM and 23.6 nM,"BEAT 2a3 CD206 arm (antibody, V domains shown) VH: EVQLVQSGAEVKKPGESLRISCKGSGDSFTTYWIGWVRQMPGKGLEWMGIIYPGDSDTIYSPSFQGQVTISADKSISTAYLQWSSLKASDTAMYYCTRGDRGVDYWGQGTLVTVSS VL: DIQMTQSPSSLSASVGDRVTITCRASQGISRWLAWYQQKPEKAPKSLIYAASSLQSGVPSRFSGSGSGTDFTLTISGLQPEDFATYYCQQYNSYPRTFGQGTKVEIK"
8,11.8 nM and 9.48 nM,"BEAT 2a2 CD206 arm (antibody, V domains shown) VH: EVQLVQSGAEVKKPGESLRISCKGSGDSFTTYWIGWVRQMPGKGLEWMGIIYPGDSDTIYSPSFQGQVTISADKSISTAYLQWSSLKASDTAMYYCTRGDRGVDYWGQGTLVTVSS VL: DIQMTQSPSSLSASVGDRVTITCRASQGISRWLAWYQQKPEKAPKSLIYAASSLQSGVPSRFSGSGSGTDFTLTISGLQPEDFATYYCQQYNSYPRTFGQGTKVEIK"
9,20.1 nM and 21.3 nM,"BEAT 2b3 CD206 arm (antibody, V domains shown) VH: EVQLVQSGAEVKKPGESLRISCKGSGDSFTTYWIGWVRQMPGKGLEWMGIIYPGDSDTIYSPSFQGQVTISADKSISTAYLQWSSLKASDTAMYYCTRGDRGVDYWGQGTLVTVSS VL: DIQMTQSPSSLSASVGDRVTITCRASQGISRWLAWYQQKPEKAPKSLIYAASSLQSGVPSRFSGSGSGTDFTLTISGLQPEDFATYYCQQYNSYPRTFGQGTKVEIK"
10,14 nM and 12.4 nM,"BEAT 2b4 CD206 arm (antibody, V domains shown) VH: EVQLVQSGAEVKKPGESLRISCKGSGDSFTTYWIGWVRQMPGKGLEWMGIIYPGDSDTIYSPSFQGQVTISADKSISTAYLQWSSLKASDTAMYYCTRGDRGVDYWGQGTLVTVSS VL: DIQMTQSPSSLSASVGDRVTITCRASQGISRWLAWYQQKPEKAPKSLIYAASSLQSGVPSRFSGSGSGTDFTLTISGLQPEDFATYYCQQYNSYPRTFGQGTKVEIK"
11,15.8 nM and 15.6 nM,"BEAT 2a8 CD206 arm (antibody, V domains shown) VH: EVQLVQSGAEVKKPGESLRISCKGSGDSFTTYWIGWVRQMPGKGLEWMGIIYPGDSDTIYSPSFQGQVTISADKSISTAYLQWSSLKASDTAMYYCTRGDRGVDYWGQGTLVTVSS VL: DIQMTQSPSSLSASVGDRVTITCRASQGISRWLAWYQQKPEKAPKSLIYAASSLQSGVPSRFSGSGSGTDFTLTISGLQPEDFATYYCQQYNSYPRTFGQGTKVEIK"
12,30.1 nM and 32.7 nM,"BEAT 2a5 CD206 arm (antibody, V domains shown) VH: EVQLVQSGAEVKKPGESLRISCKGSGDSFTTYWIGWVRQMPGKGLEWMGIIYPGDSDTIYSPSFQGQVTISADKSISTAYLQWSSLKASDTAMYYCTRGDRGVDYWGQGTLVTVSS VL: DIQMTQSPSSLSASVGDRVTITCRASQGISRWLAWYQQKPEKAPKSLIYAASSLQSGVPSRFSGSGSGTDFTLTISGLQPEDFATYYCQQYNSYPRTFGQGTKVEIK"

# Target: CD40 (human, UniProt P25942)
# Test: SPR
# Sequence of CD40 (P25942 21-193): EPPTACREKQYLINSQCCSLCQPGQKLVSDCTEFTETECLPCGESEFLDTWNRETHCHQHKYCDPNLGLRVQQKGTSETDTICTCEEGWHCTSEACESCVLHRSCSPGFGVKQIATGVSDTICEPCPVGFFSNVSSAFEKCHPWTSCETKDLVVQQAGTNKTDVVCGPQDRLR
row,Kd,Binder
1,0.574 nM and 0.572 nM and 0.585 nM,"BEAT 1a1 CD40 arm (antibody, V domains shown) VH: not shown VL: DIQMTQSPSSVSASVGDRVTITCRASQGIYSWLAWYQQKPGKAPNLLIYTASTLQSGVPSRFSGSGSGTDFTLTISSLQPEDFATYYCQQANIFPLTFGGGTKVEIK"
2,0.444 nM and 0.391 nM and 0.467 nM,"BEAT 1a4 CD40 arm (antibody, V domains shown) VH: not shown VL: DIQMTQSPSSVSASVGDRVTITCRASQGIYSWLAWYQQKPGKAPNLLIYTASTLQSGVPSRFSGSGSGTDFTLTISSLQPEDFATYYCQQANIFPLTFGGGTKVEIK"
3,0.487 nM and 0.496 nM,"BEAT 1b4 CD40 arm (antibody, V domains shown) VH: not shown VL: DIQMTQSPSSVSASVGDRVTITCRASQGIYSWLAWYQQKPGKAPNLLIYTASTLQSGVPSRFSGSGSGTDFTLTISSLQPEDFATYYCQQANIFPLTFGGGTKVEIK"
4,0.988 nM and 0.986 nM,"BEAT 1a5 CD40 arm (antibody, V domains shown) VH: not shown VL: DIQMTQSPSSVSASVGDRVTITCRASQGIYSWLAWYQQKPGKAPNLLIYTASTLQSGVPSRFSGSGSGTDFTLTISSLQPEDFATYYCQQANIFPLTFGGGTKVEIK"
5,0.471 nM and 0.534 nM,"BEAT 1a2 CD40 arm (antibody, V domains shown) VH: not shown VL: DIQMTQSPSSVSASVGDRVTITCRASQGIYSWLAWYQQKPGKAPNLLIYTASTLQSGVPSRFSGSGSGTDFTLTISSLQPEDFATYYCQQANIFPLTFGGGTKVEIK"
6,0.535 nM and 0.7 nM,"anti-CD40 IgG2 (antibody, V domains shown) VH: not shown VL: DIQMTQSPSSVSASVGDRVTITCRASQGIYSWLAWYQQKPGKAPNLLIYTASTLQSGVPSRFSGSGSGTDFTLTISSLQPEDFATYYCQQANIFPLTFGGGTKVEIK"
7,0.444 nM and 0.295 nM,"BEAT 1b2 CD40 arm (antibody, V domains shown) VH: not shown VL: DIQMTQSPSSVSASVGDRVTITCRASQGIYSWLAWYQQKPGKAPNLLIYTASTLQSGVPSRFSGSGSGTDFTLTISSLQPEDFATYYCQQANIFPLTFGGGTKVEIK"

# Source: US20260285997 (published 2026)
